{
  "source": "the DeepSol protein solubility set",
  "data": [
    {"test": "soluble on expression in E. coli; label from the status in PepcDB or PDB records", "values": [
      {"sequence": "MEVPKNPYESTWTGYDFYYEKEPKKVPPSAGSGKMPAFQSIASISTDRESPEDPGNSGYLASGAESGPKKTTSKPATTPTPEPTTTPVEEEKVKVSPSSSTKDPSKLHKTTKTPVTITNIISTTTAPPAPSRAPENDPESGSDQSESTDNLDLLYGGGSSATATGEDKKARHSTTNNPNFCTDPPKLHDPPPPHPSAPQNLLTQLIQKKKDAPNKGSSEKSSKWSDDHASGYPEGSAPSAEPSENQYEQDGSIPSSNDYKELTDVPGTKPSSSASRGSNMAGNPTAPLTTTQHTFAPNSTETSRSSTSRGKAPGTEPKSEARYSSQNPYSDNSSTQKPEYESGYPAVSGANSRAQIPNITDYTKPSAVSIEYASSSKERSDPPFSTPLTSNSQHVLTQPRPRDYEDGPQETTRTKASGTKSPNSLQAPQQTAAHLMKNARAPGPEPSLHSTTTHHVQTPIITIAPKFSEPSPYAENIMLTPKQAPGTEPRSNSQNPQTDRLASQSGYESGGPGRPQNVSIRHRENPKGSDAISRTAITPSKIDYFAPSSPTGPIGYERQVPSFKEGPDHQYTKYSTLNSPPAPSPQESSTITHHVSTSPDFLEPSSESSVLLPKQAPGTNPSTSNSPPGYSELIGPSGPESQGYEPMGNNGPSIFEGPGTESGYSEPKALSTASQKTKPDDKPYEIPRSIEPSNSKPYPSDSSWSDHDNAPGSEPSYIPDVLDYGARANNHAGKMMNMSHATSPSTGSPSNSNNAISARDPYDHFGTITAPSDIPRANSNFEEYPDDGGYDGTNDVAIVPLRTQHGTNPSTITTTNTQVRAQISEIDRIAESFENSAREPVEYEQRITSESSKGITAVTGKDFMKKLGRKSPTCCSCCDEKQSVSRNIETQADPLHVQHAVDPSRQLVESEPVQNFVPLQNTVGGNAYIQPQPVAQQQTIYQQPFQQYQPQYPQSYQQPSCGCQPQPQNCCAPPAPCCLPTIPCCPPIPCCPQPKICCQPAPVCLPPPTCCSINFKLPTIPICGRACPSCPCRRRMHKSRRLKRHSINSNCHQCSSAGEPWRSVLHHREKRAAPGCTSGFSTMSQNSCGTCGASNLRSPRVKRMGCLPCLGRKKRDTDENSHIRVKRMGCLPCLGRKKRSTLSQSGCSQCNSMGHLFNRYKRSLFGGCSPCAPQQPCGCGRKKRSVTMKLVKRAPMQCDSTCCDFSRCPYRQKKEALVPFM", "soluble on expression in E. coli": "not soluble"},
      {"sequence": "MSLKQQLIKNGLVLDMKGNHKPQAKDILIEGKWIRDIRPNIEPEVDTEIIDAEGKIVMPGFVDTHRHVWESLLRHIGTDWTLLTYLDNLYYGNLGSMLTPEDSYIANLWGALEAIDAGVTTVLDWSMLETPEHADASIKGLQAAGIRAVFAHGTPGYETYWSRDSEVRHPKDAKRVKKEYFQSDDQLLTMALAIRGPEFSSWEVTLDDIQLARELDAIASMHIGFGTWGPHDRSITRMREAGLLDSDLNLVHVNRIQPHEYEYIAESGASLSVTPEVEMMMGHGYPATGYLHKHRGLVTLGVDVVVATAGDMFAQMKFALQAERAWQNEQRLDRGEMPEQLKMTTNDVLTFATLNGAKALKLDDKIGTLDVGKEADLLLINPSSFNLFPLNHEPVGAVVQSARPENVDSVFIAGRPVKRHGKLLFDDLDGLRNKVLAASEAVFHRQAAKNEGHHHHHH", "soluble on expression in E. coli": "soluble"},
      {"sequence": "LPSPSRQASTRRMSIGESIDGKINDWEEPRLDIEGFVVDYFTHRIRQNGMEWFGAPGLPSGVQPEHEMMRVMGTIFEKKHAENFETFSEQLLAVPRISFSLYQDVVRTVGNAQTDQSPMSYGRLIGLISFGGFVAAKMMESVELQGQVRNLFVYTSLFIKTRIRNNWKEHNRSWDDFMTLGKQMKEDYERAEAEKVGRRKQNRR", "soluble on expression in E. coli": "soluble"},
      {"sequence": "MGSDKIHHHHHHMRIVHISDLHFGEELIREKVEKAVRQINEIEPDLLVITGDLSCWGIHSEMRDAYETLLDLKPDYIAVPGNHDARNIGYEFFQLYFGETKKYWKNDVVSLIAADSTQPDLDDGYIGKEQRDWIVSKIRKDRFNILALHHHIAPIPKTGRERNVLIDAGEMVELLIANGISAVLAGHRHMPYSLRLMRTHVIHAGTLGSFKVLGMPDHNYNVIEIKDNTLTLKLRFVDYGEVEIGRYTINPETPESISVYQRIAKPKKVLFLSRSNDCRTKIAEAIFNHISPNNMLAVSAGIEPAQDLDLRAVATMRELGLKINGKPRKFSEDMVSDFDAIVEFDELGVGEFWDVKKPSSAEEYREVRSEIWRRVEELVKRLLA", "soluble on expression in E. coli": "not soluble"},
      {"sequence": "MGSDKIHHHHHHMALKDIISQVYRRLFNVIATVCPVRKHVVLFEAFNGKVPMDNPLYVYEALQTAHPDWKLVWSVKRQLVVEAQEKYPKLNIIPRFSAKWLLVAPVAEFWVLNARMPYWLKKNAKTTYIQTWHGTPLKRLGIDIPKVSMPGTDTSQYRQNFTAESKRWDYLIAPNQFSKDVFRRAFDFNNQFLDYGYPRNDRLVHQRQDYDAIAAIKKRIVGNKMGKVILYAPTWRDDFFIRKGMYKMNLPFSLAAVVKRLNKEDVLIIRPHYLVAESINIQGFEDNVKLCVDEDINDLYLISDLLITDYSSVMFDYAILNRPMLFYPYDLAHYQGDVRGFYFDYNKVPGPIVTNEQDFLAKLDQFLTNDGYPNETAKMMAFRTQFTEWEQGTASQRVVKLITSIDQNANNYTG", "soluble on expression in E. coli": "not soluble"},
      {"sequence": "MSIRRSDPLAQVSDFDIRLLRIFKSVVEAGGFSAAESALGIGRSAISQQMSDLEQRLGLRLCQRGRAGFSLTDEGREVYQSSLQLLSALESFRTEVNGLHQNLRGELNIGLTDNLVTLPHMRITHALSRLKERGPGVHINIRMIAPAEVEQGVLDGGLHVGVVPQASALPGLEYHSLYSERSLLYCAVGHPLFYAENTMLDDQRLALQEAVAPTFRLPNDIQEHYKALTCTASASDREGIAFLILTGRYIGYLPDHYANAWVQEGRLRALKPDAKFYDLNLVTVTRKGRRPHLVLEGFLEALAATR", "soluble on expression in E. coli": "not soluble"},
      {"sequence": "HLGEHEVPGHLMDFVTTYSTNLAVPQRRDADDERVLAGKKLFYQANCVACHVPKYVTRRDAAQPEHRFQLIWPYTDMLLHDMGDGLADGVSEEQANGREWRTPPLWGIGLTRLVNPSATWLHDGRARTLLEAVLWHGGEAQAARDRVVAMSPGERADLIRFLESL", "soluble on expression in E. coli": "not soluble"},
      {"sequence": "MGSDKIHHHHHHMNQSKTAIVIDSSANIAPEIVRKYHFTIVNQPVMFGKHVYHENMDIDSDEFYRMLKLEKYHPTASQIPMKEMQEVFSNLAQAGYEAALCIGLSGGLSGFINSVSASVPAIKDLQVYPYDSGSILAGVEKVAILASHLLDNGVDIHEVLHQMRKYRRQTQAYIAVNNIKELQNMGNISNRTSLVGSFFGMRPILTINHQGRLEMVGKERQMKNAMEAIEEIFDKQLVDHTNLVVTVIDANDVDRSMQWQSTLKAKYPGMQVESQQIGPYVGTYTGSKAIGLIWSPKL", "soluble on expression in E. coli": "not soluble"},
      {"sequence": "MGSDKIHHHHHHLSNYINDLRQKVGNAPLILNTATGALFNNAGEVLLQERVDTKDWGFPGGYLEYGETYKKAIMREFQEDTGLSVIPEKLIQNTDDTFYKYPNGDQIQSINQFFLVRYLEGTLLSVKTGETTRLKYFKLDQPPQFFNEQHAEMFKKIQRMRE", "soluble on expression in E. coli": "not soluble"},
      {"sequence": "MPKLPRIDFYFDVISPYSYIAFEVFQKLETQWKGVTIRYIPFFLGAVMKESGNRPPAMLPARSIMMMTDLKRTAKFWDIPLTPPPLFMEWIKKYRTTGAMKVLLVLQEQDKELMLRAAREMWVRLWSRSEKIFEDQDFVEVLKAVGVKNPEQIVEKSKDEKYIKILMENTNKGVDLMAYGAPWINVHTEDGSEHSFFGSDRFHLIADLLQQPQPLPDRLFGQKSKL", "soluble on expression in E. coli": "not soluble"},
      {"sequence": "MKIGLIGAGVVGRAIATLAVRAGHQVMLSNSRGPHTLFSLRAAVGCAIGTVDEAAAFGDIGVVAVPLAAYRAVPAAALAGKVVIDTNNYYPERDGAIAELDDKRTTTSELLARHLPASRIVKAFNAITMTDLDRDGRPAGSPNRRALPVAGDDAKGKAIAIALLDAFGFDALDAGPLSQGWRFERGTPAYCVALTRDALEKTLAATTRLEHHHHHH", "soluble on expression in E. coli": "not soluble"},
      {"sequence": "MSTDNLLQPKLIEATLGDYPVIQNMARFYVYDMSRYCGFISEEWTCPPDGLYESYDFKIYFTDPERKAFLIQIDNELAGFALLNKFGIQAVDWSMGEFFILAKFQGKGIGQSVAHQLWRTHPGEWEISVIPENIPALSFWRQAVMTYTL", "soluble on expression in E. coli": "not soluble"},
      {"sequence": "MERDERPPSGGGGGGGSAGFLEPPAALPPPPRNGFCQDELAELDPGTNGETDSLTLGQGHIPVSVPDDRAEQRTCLICGDRATGLHYGIISCEGCKGFFKRSICNKRVYRCSRDKNCVMSRKQRNRCQYCRLLKCLQMGMNRKAIREDGMPGGRNKSIGPVQISEEEIERIMSGQEFEEEANHWSNHGDSDHSSPGNRASESNQPSPGSTLSSSRSVELNGFMAFRDQYMGMSVPPHYQYIPHLFSYSGHSPLLPPQARSLDPQSYSLIHQLMSAEDLEPLGTPMLIEDGYAVTQAELFALLCRLADELLFRQIAWIKKLPFFCELSIKDYTCLLSSTWQELILLSSLTVYSKQIFGELADVTAKYSPSDEELHRFSDEGMEVIERLIYLYHKFHQLKVSNEEYACMKAINFLNQDIRGLTSASQLEQLNKRYWYICQDFTEYKYTHQPNRFPDLMMCLPEIRYIAGKMVNVPLEQLPLLFKVVLHSCKTSTVKE", "soluble on expression in E. coli": "not soluble"},
      {"sequence": "MAKEKARYFTFLLYPESIPSDWELKLETLGVPMAISPLHDKDKSSIKGQKYKKAHYHVLYIAKNPVTADSVRKKIKLLLGEKSLAMVQVVLNVENMYLYLTHESKDAIAKKKHVYDKADIKLINNFDIDRYVTLDVEEKTELFNVVVSLIRAYTLQNIFDLYDFIDENGETYGLTINLVNEVIAGKTGFMKLLFDGAYQRSKRGTKNEER", "soluble on expression in E. coli": "soluble"},
      {"sequence": "MRMKKLTTLISAALLSTSVSFVAQAQDTVAIVLSTLNNPFFVTMKDGAEAKAKELGYNLIVLDSQNDPSKELSNVEDLTVRGVKAILINPTDSDAVSNAIRIANRSKIPVLTLDRGASRGEVVSHIASDNVVGGEMAGHFIEAKIGSDAKVIQLEGIAGTSAARERGEGFMNAVKGSKMQLLASQPADFDRTKGLNVMENLLAANPDVQAVFAQNDEMALGALRAIQASGKSVMIVGFDGTDDGIAAVERGQLAATVAQQPDMIGAIGIETADKMLKGEKVEAYIPVALKVIAK", "soluble on expression in E. coli": "not soluble"},
      {"sequence": "MSLPDKFKRVHVVVMDSVGIGEAPDAAKFGDFDVDTFGHIAKHVGGLKMPEMGKLGLSNIREIEGIKKAEKPLAYYTKMQEASNGKDTMTGHWEIMGLYIDTPFRVFPDGFPDDLINQIEEKTGRKVIGNKPASGTEIMAELGEEHVKTGALIVYTSADSVLQIAAHEDVVPLEELYEICEFCRKITLDDPYMLGRIIARPFVGEPGAFVRTPNRHDYALKPFKPTVMDALKDGGKDVIAIGKISDIFDGEGVTESIRTKSNMDGMDQFIAVLDKDFNGMSFLNLVDFDALFGHRRDPQGYADALVDFDGRLVEVMEKLTDDDLLIITADHGNDPTYTGTDHTREFVPLLVYSPRFKNGGSELELRKTFADLGATVADNFDVKMPEYGTSFLRDLKEGHHHHHH", "soluble on expression in E. coli": "not soluble"},
      {"sequence": "MNVEINGKSLELSFGFKFLREIDNRLGLKVEQASIGQGVSMLPVGLESGNPVVIGEVLIASTSHLKKQAITINNIDEALDEIAENIGLEEFGSDILTELGKRPMTRNLVEVVETEEKPAEALEHHHHHH", "soluble on expression in E. coli": "not soluble"},
      {"sequence": "MSLKILFVAAEGAPFSKTGGLGDVIGALPKSLVKAGHEVAVILPYYDMVEAKFGNQIEDVLHFEVSVGWRRQYCGIKKTVLNGVTFYFIDNQYYFFRGHVYGDFDDGERFAFFQLAAIEAMERIDFIPDLLHVHDYHTAMIPFLLKEKYRWIQAYEDIETVLTIHNLEFQGQFSEGMLGDLFGVGFERYADGTLRWNNCLNWMKAGILYANRVSTVSPSYAHEIMTSQFGCNLDHILKMESGKVSGIVNGIDADLYNPQTDALLDYHFNQEDLSGKAKNKAKLQERVGLPVRADVPLVGIVSRLTRQKGFDVVVESLHHILQEDVQIVLLGTGDPAFEGAFSWFAQIYPDKLSTNITFDVKLAQEIYAACDLFLMPSRFEPCGLSQMMAMRYGTLPLVHEVGGLRDTVRAFNPIEGSGTGFSFDNLSPYWLNWTFQTALDLYRNHPDIWRNLQKQAMESDFSWDTACKSYLDLYHSLVNEGHHHHHH", "soluble on expression in E. coli": "soluble"}
    ]}
  ]
}
